# Measured values taken from US20230265151A1, “GIP/GLP1 CO-AGONIST COMPOUNDS” (priority 2020, published 2023).
# B1: Y-Aib-EGT-αMeF(2F)-TSD-4Pal-SI-αMeL-LD-Orn-K((2-[2-(2-Amino-ethoxy)-ethoxy]-acetyl)2-(γ-Glu)-CO-(CH2)12-CO2H)AQ-Aib-EFIK((2-[2-(2-Amino-ethoxy)-ethoxy]-acetyl)2 … (peptide)
# peptide: YXEGTXTSDXSIXLDXKAQXEFIKXLIEGGPSSGAPPPS
# modifications: Aib2, αMeF(2F)6, 4Pal10, αMeL13, Orn16, Aib20, αMeY25; acylated K17, K24 (groups as in name); C-terminal amide
# B2: Y-Aib-EGT-αMeF(2F)-TSD-4Pal-SI-αMeL-LD-Orn-K((2-[2-(2-Amino-ethoxy)-ethoxy]-acetyl)2-(γ-Glu)-(4-(4-iodophenyl)butanoyl))AQ-Aib-EFI-(D-Glu)-αMeY-LIEGGK((2-[2-(2- … (peptide)
# peptide: YXEGTXTSDXSIXLDXKAQXEFIXXLIEGGKSSGAPPPS
# modifications: Aib2, αMeF(2F)6, 4Pal10, αMeL13, Orn16, Aib20, D-Glu24, αMeY25; acylated K17, K31 (groups as in name); C-terminal amide
# B3: Y-Aib-EGT-αMeF(2F)-TSD-4Pal-SI-αMeL-LD-Orn-K((2-[2-(2-Amino-ethoxy)-ethoxy]-acetyl)3-(γ-Glu)-CO-(CH2)14-CH3)AQ-Aib-EFI-(D-Glu)-αMeY-LIEGGK((2-[2-(2-Amino-ethoxy … (peptide)
# peptide: YXEGTXTSDXSIXLDXKAQXEFIXXLIEGGKSSGAPPPS
# modifications: Aib2, αMeF(2F)6, 4Pal10, αMeL13, Orn16, Aib20, D-Glu24, αMeY25; acylated K17, K31 (groups as in name); C-terminal amide
# B4: Y-Aib-EGT-αMeF(2F)-TSD-4Pal-SI-αMeL-LD-Orn-K((2-[2-(2-Amino-ethoxy)-ethoxy]-acetyl)2-(εK)-(γ-Glu)-CO-(CH2)12-CO2H)AQ-Aib-EFI-(D-Glu)-αMeY-LIEGGK((2-[2-(2-Amino- … (peptide)
# peptide: YXEGTXTSDXSIXLDXKAQXEFIXXLIEGGKSSGAPPPS
# modifications: Aib2, αMeF(2F)6, 4Pal10, αMeL13, Orn16, Aib20, D-Glu24, αMeY25; acylated K17, K31 (groups as in name); C-terminal amide
# B5: Y-Aib-EGT-αMeF(2F)-TSD-4Pal-SI-αMeL-LD-Orn-K((2-[2-(2-Amino-ethoxy)-ethoxy]-acetyl)2-(10-(4-carboxyphenoxy)decanoyl))AQ-Aib-EFI-(D-Glu)-αMeY-LIEGGK((2-[2-(2-Ami … (peptide)
# peptide: YXEGTXTSDXSIXLDXKAQXEFIXXLIEGGKSSGAPPPS
# modifications: Aib2, αMeF(2F)6, 4Pal10, αMeL13, Orn16, Aib20, D-Glu24, αMeY25; acylated K17, K31 (groups as in name); C-terminal amide
# B6: Y-Aib-EGT-αMeF(2F)-TSD-4Pal-SI-αMeL-LD-Orn-K((2-[2-(2-Amino-ethoxy)-ethoxy]-acetyl)2-(γ-Glu)-CO-(CH2)12-CO2H)AQ-Aib-EFI-(D-Glu)-αMeY-LIK((2-[2-(2-Amino-ethoxy)- … (peptide)
# peptide: YXEGTXTSDXSIXLDXKAQXEFIXXLIKGGPSSGAPPPS
# modifications: Aib2, αMeF(2F)6, 4Pal10, αMeL13, Orn16, Aib20, D-Glu24, αMeY25; acylated K17, K28 (groups as in name); C-terminal amide
# B7: Y-Aib-EGT-αMeF(2F)-TSD-4Pal-SI-αMeL-LD-Orn-K((2-[2-(2-Amino-ethoxy)-ethoxy]-acetyl)2-(γ-Glu)-CO-(CH2)14-CH3)AQ-Aib-K((2-[2-(2-Amino-ethoxy)-ethoxy]-acetyl)2-(γ- … (peptide)
# peptide: YXEGTXTSDXSIXLDXKAQXKFIXXLIEGGPSSGAPPPS
# modifications: Aib2, αMeF(2F)6, 4Pal10, αMeL13, Orn16, Aib20, D-Glu24, αMeY25; acylated K17, K21 (groups as in name); C-terminal amide
# B8: Y-Aib-EGT-αMeF(2F)-TSD-4Pal-SI-αMeL-LD-Orn-K((εK)-(2-[2-(2-Amino-ethoxy)-ethoxy]-acetyl)-(γ-Glu)-CO-(CH2)12-CO2H)AQ-Aib-EFI-(D-Glu)-αMeY-LIEGGK((εK)-(2-[2-(2-Am … (peptide)
# peptide: YXEGTXTSDXSIXLDXKAQXEFIXXLIEGGKSSGAPPPS
# modifications: Aib2, αMeF(2F)6, 4Pal10, αMeL13, Orn16, Aib20, D-Glu24, αMeY25; acylated K17, K31 (groups as in name); C-terminal amide
# B9: Y-Aib-EGT-αMeF(2F)-TSD-4Pal-SI-αMeL-LD-Orn-K((2-[2-(2-Amino-ethoxy)-ethoxy]-acetyl)-(γ-Glu)-CO-(CH2)12-CO2H)AQ-Aib-EFI-(D-Glu)-αMeY-LIEGGK((2-[2-(2-Amino-ethoxy … (peptide)
# peptide: YXEGTXTSDXSIXLDXKAQXEFIXXLIEGGKSSGAPPPS
# modifications: Aib2, αMeF(2F)6, 4Pal10, αMeL13, Orn16, Aib20, D-Glu24, αMeY25; acylated K17, K31 (groups as in name); C-terminal amide
# Biological target: human glucagon receptor (human, UniProt P47871 26-477)
# Assay: cell-based or functional assay
row,Binder,cAMP EC50 (1.0% HSA)
1,B1,> 9.95 µM
2,B2,> 9.95 µM
3,B3,> 9.95 µM
4,B4,> 9.95 µM
5,B5,> 9.95 µM
6,B6,> 9.95 µM
7,B7,> 9.95 µM
8,B8,> 9.95 µM
9,B9,> 9.95 µM
